Results as given in paper PMC2643003, “Improved Learning and Memory in Aged Mice Deficient in Amyloid β-Degrading Neutral Endopeptidase” (PLoS ONE, 2009).

Columns and labels:
[1] = type: in vitro ADME, mice
Protocol: Figure 5 NEP-dependent neuropeptide degradation. […] The reactions were stopped by adding 0.35 M perchloric acid. In parallel assays, heat-inactivated probes (5 min at 90°C) were used as a control. After centrifugation of sedimented proteins, HPLC analyses were performed by isocratic elution as described by Siems et al.. […] The reactions were stopped by addition of 0.35 M perchloric acid. In parallel assays, heat-inactivated NEP (5 min at 90°C) was used as a control. HPLC analysis was performed by isocratic elution as described. The significance of differences was calculated by two-sided t test; n≥4; **P<0.01. (c) For galanin and GLP-1 immunohistochemistry, slices were incubated with the specific antibodies, followed by incubation with biotinylated anti-rabbit IgG. Immunoreactive products were visualized by the nickel ammonium sulfate-intensified diaminobenzidine reaction. Unequivocally stained regions in the murine cortex were localized and defined as ROIs (regions of interest), and luminometrically compared with adjacent regions without detectable staining (reference ROIs) (for both regions n = 40). The calculated differences were shown as mean±s.e.m.). Significant differences were calculated by Student's t test, indicated by **P<0.01, ***P<0.001.
The production of brain membranes and the HPLC-monitored peptide degradation procedures were performed as described in detail by Siems et al.. […]

[2] = system: associative and spatial learning; conditions: injected intracerebroventricularly; cited from earlier work
Excerpt: It has been shown that NEP targets a variety of peptides involved in learning and memory such as oxytocin [36], NPY [37] or CCK [38]. Thus, marked improvement in learning and memory in very old NEP-deficient mice if compared with their aged-matched controls appears to be explained best by these NEP-degradable neuropeptides. Nevertheless, the known catalytic properties of NEP - it preferentially hydrolyses oligopeptides by cleaving on the N-terminal side of hydrophobic amino acid residues - and the knowledge of further potential learning-associated peptides [39]–[42] motivated us to t ...

recombinant (rc) NEP = molecular target: T1, recombinant (rc) NEP (Homo sapiens, UniProt P08473); test: HPLC-monitored peptide degradation by recombinant NEP; type: in vitro ADME; conditions: peptide 5 µM, rcNEP 20 ng (R&D Systems), over 120 min, stopped with 0.35 M perchloric acid, heat-inactivated control, HPLC isocratic elution, n≥3; values only in Figure 5a
T1 construct: purchased R&D Systems GmbH (Wiesbaden, Germany)
T1 sequence (P08473 whole entry): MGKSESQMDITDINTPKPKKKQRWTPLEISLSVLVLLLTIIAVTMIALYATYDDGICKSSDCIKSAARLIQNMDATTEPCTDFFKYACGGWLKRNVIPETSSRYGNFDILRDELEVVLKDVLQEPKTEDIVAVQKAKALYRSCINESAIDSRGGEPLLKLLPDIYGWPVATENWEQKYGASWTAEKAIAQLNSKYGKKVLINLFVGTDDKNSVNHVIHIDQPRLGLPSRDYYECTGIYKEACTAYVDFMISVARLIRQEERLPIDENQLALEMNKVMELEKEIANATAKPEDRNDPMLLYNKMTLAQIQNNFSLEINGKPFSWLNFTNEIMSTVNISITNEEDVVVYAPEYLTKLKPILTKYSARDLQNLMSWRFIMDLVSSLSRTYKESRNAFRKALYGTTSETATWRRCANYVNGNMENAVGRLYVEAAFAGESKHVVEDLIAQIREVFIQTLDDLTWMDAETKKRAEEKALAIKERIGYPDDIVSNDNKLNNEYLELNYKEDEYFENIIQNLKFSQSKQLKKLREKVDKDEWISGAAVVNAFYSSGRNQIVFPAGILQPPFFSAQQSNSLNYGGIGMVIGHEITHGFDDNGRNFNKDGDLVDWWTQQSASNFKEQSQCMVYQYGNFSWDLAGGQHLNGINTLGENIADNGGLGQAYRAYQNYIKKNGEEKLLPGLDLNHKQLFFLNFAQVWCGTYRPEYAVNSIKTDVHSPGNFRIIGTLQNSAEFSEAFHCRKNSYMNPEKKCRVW
Protocol: The reactions were stopped by adding 0.35 M perchloric acid. In parallel assays, heat-inactivated probes (5 min at 90°C) were used as a control. After centrifugation of sedimented proteins, HPLC analyses were performed by isocratic elution as described by Siems et al. [45]. […] The reactions were stopped by addition of 0.35 M perchloric acid. In parallel assays, heat-inactivated NEP (5 min at 90°C) was used as a control. HPLC analysis was performed by isocratic elution as described [45].
The production of brain membranes and the HPLC-monitored peptide degradation procedures were performed as described in detail by Siems et al. [45]. […] The recombinant NEP was obtained from R&D Systems GmbH (Wiesbaden, Germany).

NEP [3] = conditions: infusion into hippocampus or cortical ventricle, young rats, 4 weeks, local Aβ accumulation; cited from earlier work
Excerpt: The underlying mechanisms leading to better learning and improved LTP are still speculative. However, this improved learning seems more likely to be an Aβ-independent effect in our mouse model.

NEP [4] = conditions: rats and mice after treatment with thiorphan; cited from earlier work
Excerpt: Consistent with previous studies showing a broad spectrum of peptidases inhibited by that peptidase inhibitor [18], we hypothesized that there were other factors inhibited by thiorphan as a requisite for murine Aβ accumulation.

Compound	peptide degradation in brain membranes of wild-type (+/+) and knockout mice (−/−) [1]	effect on associative and spatial learning [2]	degradation by rcNEP (recovery in %) (recombinant (rc) NEP)	effect on learning and memory (NEP [3])	deposition of endogenous Aβ (NEP [4])
glucagon-like peptide 1 [GLP-1]	reduced rate of GLP-1 degradation in brains lacking NEP	improve associative and spatial learning			
galanin	identified galanin as a NEP substrate		identified galanin as a NEP substrate		
O=C(O)CNC(=O)C(CS)Cc1ccccc1 (stereo not drawn) [thiorphan]				impaired learning and memory	plaque formation and fibrillization
